Assay results from article PMC2836565.

Columns and labels:
Vts1 [1] = target: T1, Vts1 (Saccharomyces cerevisiae, UniProt Q08831 1-523); assay: EMSA
T1 sequence: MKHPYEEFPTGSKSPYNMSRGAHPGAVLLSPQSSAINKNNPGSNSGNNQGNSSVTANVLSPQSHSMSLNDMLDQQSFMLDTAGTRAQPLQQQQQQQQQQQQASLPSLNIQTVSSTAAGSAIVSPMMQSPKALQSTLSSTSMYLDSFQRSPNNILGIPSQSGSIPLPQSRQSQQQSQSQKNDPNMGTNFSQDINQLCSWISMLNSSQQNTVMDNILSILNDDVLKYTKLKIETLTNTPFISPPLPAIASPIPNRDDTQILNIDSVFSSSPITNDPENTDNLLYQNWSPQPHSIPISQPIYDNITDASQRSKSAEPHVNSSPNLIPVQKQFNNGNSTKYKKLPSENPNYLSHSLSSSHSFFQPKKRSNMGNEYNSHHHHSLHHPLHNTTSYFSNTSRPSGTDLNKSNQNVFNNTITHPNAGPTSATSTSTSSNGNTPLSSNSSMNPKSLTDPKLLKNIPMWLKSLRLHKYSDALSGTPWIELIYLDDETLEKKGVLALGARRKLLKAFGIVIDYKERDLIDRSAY

Vts1-A498Q = target: T2, Vts1-A498Q (Saccharomyces cerevisiae, UniProt Q08831 1-523, A498Q); assay: EMSA
T2 sequence: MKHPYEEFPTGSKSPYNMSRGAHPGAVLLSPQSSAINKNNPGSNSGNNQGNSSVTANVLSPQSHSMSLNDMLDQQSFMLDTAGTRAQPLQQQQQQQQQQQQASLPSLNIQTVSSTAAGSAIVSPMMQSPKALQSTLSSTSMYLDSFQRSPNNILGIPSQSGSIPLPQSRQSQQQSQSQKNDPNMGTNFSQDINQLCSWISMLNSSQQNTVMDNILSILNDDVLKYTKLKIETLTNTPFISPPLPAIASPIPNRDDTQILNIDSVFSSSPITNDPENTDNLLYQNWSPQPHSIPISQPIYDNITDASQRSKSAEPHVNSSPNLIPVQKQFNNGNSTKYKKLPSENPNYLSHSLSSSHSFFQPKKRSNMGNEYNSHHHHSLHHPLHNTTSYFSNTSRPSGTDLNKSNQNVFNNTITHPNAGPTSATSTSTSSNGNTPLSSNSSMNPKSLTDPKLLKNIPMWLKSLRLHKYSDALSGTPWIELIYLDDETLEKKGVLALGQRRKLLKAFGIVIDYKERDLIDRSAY

Vts1 [2] = target: T1, Vts1; assay: competition

Binder	binding result (Vts1 [1])	binding result (Vts1-A498Q)	binding result (Vts1 [2])
GCUCGAGGCUCUGGCAGCCUCGAGC (structured_RNA) [SRE-RNA]	binds	no binding	
dsDNA 50-bp (dsDNA) DNA 1: GAAAACATTATTAATGGCGTCGAGCTAGGCACAAGGCGAACTGCTAACGG DNA 2: CCGTTAGCAGTTCGCCTTGTGCCTAGCTCGACGCCATTAATAATGTTTTC			binds
